{"source": "paper PMC10136230", "origin": "cited, not measured here", "target": "AGE-albumin (UniProt P02768)", "assay": "125I-labeled ligand binding", "data": [{"substance": "RAGE (from UniProt Q15109)", "values": [{"measurement": "Kd", "value": 200, "unit": "nM"}]}]}
